Data: patent publication US9765346B2, “Biological methods for preparing a fatty dicarboxylic acid” (Verdezyne, Inc., priority 2011, dated 2017)

Molecular target: T1, Pox4 (Candida tropicalis, UniProt P06598)
T1 construct: made in house; host or cells: E. coli Rosetta II BL21, pET26b; crude cell lysate (10 ug per reaction)
Format: biochemical, Candida strain ATCC20336
Details: native isozyme
Procedure: To express an enzyme, a colony from each transformation of Rosetta cells was used to start a 5 ml overnight culture of LB containing the antibiotics kanamycin (to select for pET26b) and chloramphenicol (to select for a second plasmid found in Rosetta II cells that mediates improved translation of eukaryotic proteins expressed in E. coli) grown at 37° C. The next morning, the overnight culture was used to seed 30 ml of LB containing kanamycin and chloramphenicol to an OD600 reading of 0.1. The 30 ml cultures were grown at 37° C. for 2 hours and then placed on ice for 10 minutes. To induce expression, isopropyl-beta-D-thiogalactopyranoside (IPTG) was added to the culture to a final concentration of 0.1 mM. In some cases induction was performed using Novagen Overnight Express Autoinduction System 1 (CAT#71300-3). The cells were then shaken at 15° C. overnight to express the acyl CoA oxidase.
To test the activity of the acyl CoA oxidase, cells from the overnight induction were pelleted at 1046×g at 4° C. in 50 ml conical tubes. The cell pellets were resuspended in 1 ml of 50 mM KPO4, pH 7.6, 50 μM FAD buffer and then transferred to a 2 ml centrifuge tube. A Misonix Sonicator 3000 (QSonica, Newtown, Conn.) was used to lyse the cells, which were sonicated at a power setting of 2 for 2 pulses of 20 seconds each. […] The spectrophotometer was set to read for 5 minutes at 500 nm, 30° C. […]

B1: Pox4p: native acyl-CoA oxidase isozyme of Candida strain ATCC20336 (protein, UniProt P06598 2-709, looked up)
Acyl-coenzyme A oxidase 4: TFTKKNVSVSQGPDPRSSIQKERDSSKWNPQQMNYFLEGSVERSELMKALAQQMERDPILFTDGSYYDLTKDQQRELTAVKINRIARYREQESIDTFNKRLSLIGIFDPQVGTRIGVNLGLFLSCIRGNGTTSQLNYWANEKETADVKGIYGCFGMTELAHGSNVAGLETTATFDKESDEFVINTPHIGATKWWIGGAAHSATHCSVYARLIVDGQDYGVKTFVVPLRDSNHDLMPGVTVGDIGPKMGRDGIDNGWIQFSNVRIPRFFMLQKFCKVSAEGEVTLPPLEQLSYSALLGGRVMMVLDSYRMLARMSTIALRYAIGRRQFKGDNVDPNDPNALETQLIDYPLHQKRLFPYFVPPMSSPSVPSRLNTPSRPPWSNWTSPLKRTTPRLIFKSIDDMKSLFVDSGSLKSTATWLGAEAIDQCRQACGGHGHSSYNGFGKAYNDWVVQCTWEGDNNVLGMSVGKPIVKQVISIEDAGKTVRGSTAFLNQLKEYTGSNSSKVVLNTVADLDDIKTVIKAIEVAIIRLSQEAASIVKKESFDYVGAELVQLSKLKAHHYLLTEYIRRIDTFDQKELAPYLITLGKLYAATIVLDRFAGVFLTFNVASTEAITALASVQIPKLCAEVRPNVVAYTDSFQQSDMIVNSAIGRYDGDIYENYFDLVKLQNPPSKTKAPYSDALEAMLNRPTLDERERFQKSDETAAILSK
- substrate specificity: broad substrate specificity
